Target: the molecule itself
Experiment: SEC; HiLoad 16/60 Superdex 200 pg; 150 mM NaCl, 50 mM Tris, 10 mM MgCl2, pH 8.0; monodisperse peak at ~60 kDa against 30.5 kDa for the monomer

B1: Sulfolobus acidocaldarius GPN-loop GTPase SaGPN (Saci_1281) (enzyme)
chain: YFIFVLGTAGSGKTTLVKALQDYLLNNELDTAIINLDPAVEVLPYKPDIDAREYVDVYDVMNKYELGPNSSLVISVDLLLTKAKELKEDLNQLQANYVLVDTPGQIELFAYRDTGKILSSFISEGSKSVSVFLFDSYLSKDPKSFLSLFLLSSSIKFRIDMPQISVLSKVDLLSSSELERMRSWIEDGSIIDELGSIDEYSFELVKTIVENLESFPIPVSSTNFSGLDQLYAEVQKVLAGGEDFETEEPNPRL
notes: SaGPN (Saci_1281), the solitary GPN-loop GTPase of Sulfolobus acidocaldarius, Uniprot Q4J9A7; residues Y2-A240 were built in both structures, 14 amino acids at the C-terminus are disordered; printed mass 30.5 kDa; Crystallised with GppNHp or GDP and Mg2+; source: E. coli BL21(DE3) Rosetta, purified (heat treatment, Ni-NTA, SEC); not shown: His10, N-terminal, kept
stoichiometry N: 2

— publication PMC10746158 (mBio, 2023)
